Positions count from the first letter of the chain named. Numbers in names are those of the source.

A word on the koff: it is a measure of how fast the partners let go of each other. A high value points to fast dissociation. The kon is a measure of how fast the partners come together. Read a low kon as slow association.

Assay [1] has as its target T1, human PD-1-His (human, UniProt Q15116 25-167, limits assumed).
T1 construct: Antigen of the Octet assays; not shown: His tag
Kind of assay: Octet. For orientation: In BLI a coated tip is dipped into the sample, and binding shifts an interference pattern.

Assay [2] concerns the target T1, human PD-1-His. Nature of the assay: Octet (BLI), AHC capture of the bivalent mAb, PD-1 in solution.
Assay [3] concerns the target T1, human PD-1-His. Nature of the assay: Octet (BLI), AHC biosensors capture the bivalent mAb, dipped into multiple concentrations of PD-1; KDapp per legend.
Assay [4] concerns the target T1, human PD-1-His. Nature of the assay: Octet. This is another data set of the same source.

T1 sequence (Q15116 25-167 limits assumed): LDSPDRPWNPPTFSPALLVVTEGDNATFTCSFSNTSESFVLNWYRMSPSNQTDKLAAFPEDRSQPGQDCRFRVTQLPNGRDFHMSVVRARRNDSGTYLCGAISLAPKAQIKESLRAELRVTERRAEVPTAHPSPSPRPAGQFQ

B1: H1.79_L1 (antibody, V domains shown)
VH: EVQLVESGGGLVQPGGSLRLSCAASGFTFSSFGMHWVRQAPGKGLEWVSYISSGSYIIYYADSVKGRFTISRDNAKNSLYLQMNSLRAEDTAVYYCARGGRLVWSPDYWGQGTLVTVSS
VL: DIVMTQSPDSLAVSLGERATINCKSSQSLLNSGNQKNYLTWYQQKPGQPPKLLIYWASTRESGVPDRFTGSGSGTDFTLTISSLQAEDVAVYYCQNDYSYPFTFGSGTKLEIKR
notes: also called VH-S60Y; Kabat 55
On to B1, for which, in the assay with human PD-1-His [1], the Kd was 43.4 nM, the dissociation rate constant (koff) came to 0.00686 s⁻¹ and the kon worked out at 158000 M⁻¹ s⁻¹.

B2: H1.96_L1 (antibody, V domains shown)
VH: B1 VH with Y56S, I58E
VL: B1 VL
notes: also called VH-I62E; Kabat 57
In the case of B2, in the assay with human PD-1-His [1], the Kd turned out to be 41.6 nM, the koff turned out to be 0.00751 s⁻¹ and the kon stood at 181000 M⁻¹ s⁻¹.

B3: H1.91_L1 (antibody, V domains shown)
VH: B1 VH with Y56S, I58F
VL: B1 VL
notes: also called VH-I62F; Kabat 57
With B3, in the assay with human PD-1-His [1], the Kd is 61 nM, the koff stood at 0.00917 s⁻¹ and the kon stood at 150000 M⁻¹ s⁻¹.

B4: H1.190_L1.1 (XENP32806) (antibody, human IgG1, kappa, V domains shown)
VH: B1 VH with Y56S, R101A, W104F
VL: B1 VL with N31H
notes: VH substitution R109A/W112F (Xencor #); R97A/W100F (Kabat); also called mAb C[PD1]_H1.190_L1.1_IgG1_PVA_/S267K
In the assay with human PD-1-His [2], B4 showed a koff of 0.00271 s⁻¹ and an on-rate constant (kon) of 191000 M⁻¹ s⁻¹. The molecule also gave a Kd in the assay with human PD-1-His [3] of 14.2 nM.

B5: H1.97_L1 (antibody, V domains shown)
VH: B1 VH with Y56S, I58K
VL: B1 VL
notes: also called VH-I62K; Kabat 57
In the assay with human PD-1-His [1], B5 showed a Kd of 114 nM, a koff of 0.0175 s⁻¹ and a kon of 154000 M⁻¹ s⁻¹.

B6: H1_L1.9 (antibody, V domains shown)
VH: B1 VH with Y56S
VL: B1 VL with S32T
notes: also called VL-S32T; Kabat 27e
In the assay with human PD-1-His [4], B6 showed a Kd of 46.7 nM, a koff of 0.005 s⁻¹ and a kon of 107000 M⁻¹ s⁻¹.

B7: H1.189_L1.1 (XENP32805) (antibody, human IgG1, kappa, V domains shown)
VH: B1 VH with Y56S, L102R, W104F, S105T
VL: B1 VL with N31H
notes: VH substitution L110R/W112F/S113T (Xencor #); L98R/W100F/S100aT (Kabat); also called mAb C[PD1]_H1.189_L1.1_IgG1_PVA_/S267K
With B7, in the assay with human PD-1-His [2], the koff turned out to be 0.00199 s⁻¹ and the on-rate constant (kon) was 83800 M⁻¹ s⁻¹. This molecule registered a Kd in the assay with human PD-1-His [3] of 23.7 nM.

B8: H1_L1.12 (antibody, V domains shown)
VH: B1 VH with Y56S
VL: B1 VL with S32V
notes: also called VL-S32V; Kabat 27e
For B8, in the assay with human PD-1-His [4], the Kd was 111 nM, the off-rate (koff) amounted to 0.0115 s⁻¹ and the kon was 104000 M⁻¹ s⁻¹.

B9: H1_L1.10 (antibody, V domains shown)
VH: B1 VH with Y56S
VL: B1 VL with S32A
notes: also called VL-S32A; Kabat 27e
B9: in the assay with human PD-1-His [4], the Kd amounted to 82.9 nM, the off-rate constant (koff) was determined as 0.00755 s⁻¹ and the kon worked out at 91000 M⁻¹ s⁻¹.

B10: H1.95_L1 (antibody, V domains shown)
VH: B1 VH with Y56S, I58N
VL: B1 VL
notes: also called VH-I62N; Kabat 57
Regarding B10, in the assay with human PD-1-His [1], the Kd worked out at 73.4 nM, the koff is 0.0119 s⁻¹ and the kon came out at 162000 M⁻¹ s⁻¹.

B11: H1.192_L1.1 (XENP32808) (antibody, human IgG1, kappa, V domains shown)
VH: B1 VH with Y56S, V103L, W104F, S105A
VL: B1 VL with N31H
notes: VH substitution V111L/W112F/S113A (Xencor #); V99L/W100F/S100aA (Kabat); also called mAb C[PD1]_H1.192_L1.1_IgG1_PVA_/S267K
Take B11: in the assay with human PD-1-His [2], the dissociation rate constant (koff) stood at 0.00317 s⁻¹ and the kon came to 88500 M⁻¹ s⁻¹. This molecule also returned a Kd with human PD-1-His [3] of 35.8 nM.

B12: H1.99_L1 (antibody, V domains shown)
VH: B1 VH with Y56S, Y59H
VL: B1 VL
notes: also called VH-Y63H; Kabat 58
In the assay with human PD-1-His [1], B12 registered a Kd of 261 nM, a koff of 0.0651 s⁻¹ and a kon of 250000 M⁻¹ s⁻¹.

B13: H1.193_L1.1 (XENP32809) (antibody, human IgG1, kappa, V domains shown)
VH: B1 VH with Y56S, L102Q, V103L, W104F
VL: B1 VL with N31H
notes: VH substitution L110Q/V111L/W112F (Xencor #); L98Q/V99L/W100F (Kabat); also called mAb C[PD1]_H1.193_L1.1_IgG1_PVA_/S267K
For B13, in the assay with human PD-1-His [2], the koff came out at 0.00391 s⁻¹ and the kon was found to be 116000 M⁻¹ s⁻¹. In the assay with human PD-1-His [3], the Kd is 33.8 nM.

B14: H1.191_L1.1 (XENP32807) (antibody, human IgG1, kappa, V domains shown)
VH: B1 VH with Y56S, V103T, W104F
VL: B1 VL with N31H
notes: VH substitution V111T/W112F (Xencor #); V99T/W100F (Kabat); also called mAb C[PD1]_H1.191_L1.1_IgG1_PVA_/S267K
In the assay with human PD-1-His [2], B14 came in with a koff of 0.00382 s⁻¹ and a kon of 106000 M⁻¹ s⁻¹. This molecule yielded a Kd in the assay with human PD-1-His [3] of 36 nM.

B15: H1.80_L1 (antibody, V domains shown)
VH: B1 VH with Y56S, I57V
VL: B1 VL
notes: also called VH-I61V; Kabat 56
In the assay with human PD-1-His [1], B15 displayed a Kd of 207 nM, a koff of 0.0466 s⁻¹ and a kon of 226000 M⁻¹ s⁻¹.

B16: H1.92_L1 (antibody, V domains shown)
VH: B1 VH with Y56S, I58T
VL: B1 VL
notes: also called VH-I62T; Kabat 57
On to B16, for which, in the assay with human PD-1-His [1], the Kd was 47.8 nM, the koff stood at 0.00851 s⁻¹ and the kon turned out to be 178000 M⁻¹ s⁻¹.

B17: H1_L1.13 (antibody, V domains shown)
VH: B1 VH with Y56S
VL: B1 VL with S32H
notes: also called VL-S32H; Kabat 27e
In the assay with human PD-1-His [4], B17 had a Kd of 103 nM, a dissociation rate constant (koff) of 0.0106 s⁻¹ and a kon of 102000 M⁻¹ s⁻¹.

B18: H1.85_L1 (antibody, V domains shown)
VH: B1 VH with Y56S, I57A
VL: B1 VL
notes: also called VH-I61A; Kabat 56
For B18, in the assay with human PD-1-His [1], the Kd is 132 nM, the koff worked out at 0.0618 s⁻¹ and the kon was found to be 467000 M⁻¹ s⁻¹.

B19: H1.94_L1 (antibody, V domains shown)
VH: B1 VH with Y56S, I58A
VL: B1 VL
notes: also called VH-I62A; Kabat 57
In the assay with human PD-1-His [1], B19 registered a Kd of 80.6 nM, a koff of 0.0161 s⁻¹ and a kon of 200000 M⁻¹ s⁻¹.

B20: H1.89_L1 (antibody, V domains shown)
VH: B1 VH with Y56S, I58V
VL: B1 VL
notes: also called VH-I62V; Kabat 57
In the assay with human PD-1-His [1], B20 gave a Kd of 43.2 nM, a koff of 0.00669 s⁻¹ and a kon of 155000 M⁻¹ s⁻¹.

B21: H1_L1.11 (antibody, V domains shown)
VH: B1 VH with Y56S
VL: B1 VL with S32Q
notes: also called VL-S32Q; Kabat 27e
In the assay with human PD-1-His [4], B21 displayed a Kd of 103 nM, a koff of 0.00997 s⁻¹ and a kon of 96500 M⁻¹ s⁻¹.

B22: H1.93_L1 (antibody, V domains shown)
VH: B1 VH with Y56S, I58W
VL: B1 VL
notes: also called VH-I62W; Kabat 57
For B22, in the assay with human PD-1-His [1], the Kd amounted to 31 nM, the koff is 0.00528 s⁻¹ and the kon was found to be 170000 M⁻¹ s⁻¹.

B23: H1_L1.14 (antibody, V domains shown)
VH: B1 VH with Y56S
VL: B1 VL with S32K
notes: also called VL-S32K; Kabat 27e
In the assay with human PD-1-His [4], B23 showed a Kd of 170 nM, a koff of 0.0141 s⁻¹ and an association rate constant (kon) of 83200 M⁻¹ s⁻¹.

B24: H1.90_L1 (antibody, V domains shown)
VH: B1 VH with Y56S, I58L
VL: B1 VL
notes: also called VH-I62L; Kabat 57
In the assay with human PD-1-His [1], B24 registered a Kd of 51.5 nM, a koff of 0.00727 s⁻¹ and a kon of 141000 M⁻¹ s⁻¹.

For the origin of these results see US20240294593A1 (Genentech, published 2024).
